Laboratory results as given in PMC12990809.

Columns and labels:
Test in all cases: pulldown
[1] = molecular target: T1, pab-1 (Caenorhabditis elegans) (UniProt Q9U302); conditions: 20 nM protein, 1.5 uM RNA pool; 20 mM HEPES pH 7.8, 70 mM KCl, 10 mM NaCl, 10% glycerol, 2 mM DTT, 0.1 ug/uL BSA; 30 min, 4 C
T1 sequence: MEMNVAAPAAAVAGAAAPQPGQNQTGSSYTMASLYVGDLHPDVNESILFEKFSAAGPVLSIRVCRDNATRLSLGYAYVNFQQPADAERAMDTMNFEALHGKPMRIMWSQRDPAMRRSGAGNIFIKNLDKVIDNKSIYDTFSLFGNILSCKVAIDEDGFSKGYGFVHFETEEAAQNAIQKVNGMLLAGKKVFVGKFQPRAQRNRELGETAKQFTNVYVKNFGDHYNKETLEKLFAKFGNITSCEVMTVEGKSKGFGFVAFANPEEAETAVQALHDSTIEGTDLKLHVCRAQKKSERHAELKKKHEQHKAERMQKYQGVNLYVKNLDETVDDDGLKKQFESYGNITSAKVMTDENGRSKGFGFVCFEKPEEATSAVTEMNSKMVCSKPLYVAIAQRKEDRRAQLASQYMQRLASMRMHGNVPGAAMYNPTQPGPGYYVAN

[2] = molecular target: T2, C44B7.2 (Caenorhabditis elegans) (UniProt Q95QR5); conditions: 20 nM protein, 1.5 uM RNA pool; 20 mM HEPES pH 7.8, 70 mM KCl, 10 mM NaCl, 10% glycerol, 2 mM DTT, 0.1 ug/uL BSA; 30 min, 4 C
T2 sequence: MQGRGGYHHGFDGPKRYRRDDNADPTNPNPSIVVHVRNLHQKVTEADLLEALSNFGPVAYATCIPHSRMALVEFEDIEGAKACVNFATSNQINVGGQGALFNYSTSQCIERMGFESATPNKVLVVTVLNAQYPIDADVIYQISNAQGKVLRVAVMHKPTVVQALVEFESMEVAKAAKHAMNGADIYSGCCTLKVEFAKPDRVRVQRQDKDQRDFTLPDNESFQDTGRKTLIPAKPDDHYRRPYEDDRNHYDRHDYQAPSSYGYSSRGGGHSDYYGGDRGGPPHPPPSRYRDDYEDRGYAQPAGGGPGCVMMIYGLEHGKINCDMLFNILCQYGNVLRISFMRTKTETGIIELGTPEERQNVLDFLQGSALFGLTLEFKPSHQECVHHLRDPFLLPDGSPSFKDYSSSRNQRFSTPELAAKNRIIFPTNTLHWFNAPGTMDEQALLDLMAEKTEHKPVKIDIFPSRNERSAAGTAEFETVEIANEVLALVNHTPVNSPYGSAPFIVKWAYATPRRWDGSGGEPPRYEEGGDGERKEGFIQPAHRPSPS

[3] = molecular target: T3, PK16782.1 E6F;T7E (Cannabis sativa) (UniProt A0A7J6H871); conditions: 20 nM protein, 1.5 uM RNA pool; 20 mM HEPES pH 7.8, 70 mM KCl, 10 mM NaCl, 10% glycerol, 2 mM DTT, 0.1 ug/uL BSA; 30 min, 4 C
T3 sequence: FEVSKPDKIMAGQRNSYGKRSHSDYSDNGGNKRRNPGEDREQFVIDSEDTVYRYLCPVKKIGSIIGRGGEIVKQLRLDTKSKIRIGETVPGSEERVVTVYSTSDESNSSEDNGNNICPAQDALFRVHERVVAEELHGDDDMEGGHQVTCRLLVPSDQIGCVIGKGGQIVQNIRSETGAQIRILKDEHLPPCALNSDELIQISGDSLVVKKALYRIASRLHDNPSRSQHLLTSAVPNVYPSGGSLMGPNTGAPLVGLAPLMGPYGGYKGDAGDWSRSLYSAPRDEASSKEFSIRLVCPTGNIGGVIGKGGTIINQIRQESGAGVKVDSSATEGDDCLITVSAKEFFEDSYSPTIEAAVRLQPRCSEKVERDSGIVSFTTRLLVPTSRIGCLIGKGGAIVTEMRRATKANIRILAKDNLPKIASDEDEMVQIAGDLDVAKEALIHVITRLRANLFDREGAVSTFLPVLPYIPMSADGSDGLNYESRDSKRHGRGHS

[4] = molecular target: fmr1 (Xenopus tropicalis) (UniProt Q6GLC9); conditions: 20 nM protein, 1.5 uM RNA pool; 20 mM HEPES pH 7.8, 70 mM KCl, 10 mM NaCl, 10% glycerol, 2 mM DTT, 0.1 ug/uL BSA; 30 min, 4 C
[5] = molecular target: T4, HNRNPL C396G (Homo sapiens) (UniProt P14866); conditions: 20 nM protein, 1.5 uM RNA pool; 20 mM HEPES pH 7.8, 70 mM KCl, 10 mM NaCl, 10% glycerol, 2 mM DTT, 0.1 ug/uL BSA; 30 min, 4 C (protocol of this paper; not …); cited from earlier work
T4 sequence: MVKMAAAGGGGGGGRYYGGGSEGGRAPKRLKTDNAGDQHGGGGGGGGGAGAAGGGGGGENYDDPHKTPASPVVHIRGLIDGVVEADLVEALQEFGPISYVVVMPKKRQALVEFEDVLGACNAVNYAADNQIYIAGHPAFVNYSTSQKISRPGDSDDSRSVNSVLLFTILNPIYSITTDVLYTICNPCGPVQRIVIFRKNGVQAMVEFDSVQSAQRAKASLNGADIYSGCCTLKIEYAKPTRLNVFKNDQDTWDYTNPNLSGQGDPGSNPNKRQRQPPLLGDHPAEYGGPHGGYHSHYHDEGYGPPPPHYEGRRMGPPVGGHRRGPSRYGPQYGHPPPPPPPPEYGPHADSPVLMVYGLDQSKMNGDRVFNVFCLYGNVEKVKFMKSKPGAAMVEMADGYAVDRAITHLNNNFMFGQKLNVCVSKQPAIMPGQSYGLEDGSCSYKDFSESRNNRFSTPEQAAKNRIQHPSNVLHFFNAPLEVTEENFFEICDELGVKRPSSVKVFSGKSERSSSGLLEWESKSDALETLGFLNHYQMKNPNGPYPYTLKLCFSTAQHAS

[6] = test system: T5, PK23097.1 (Cannabis sativa); conditions: 20 nM protein, 1.5 uM RNA pool; 20 mM HEPES pH 7.8, 70 mM KCl, 10 mM NaCl, 10% glycerol, 2 mM DTT, 0.1 ug/uL BSA; 30 min, 4 C
T5 sequence: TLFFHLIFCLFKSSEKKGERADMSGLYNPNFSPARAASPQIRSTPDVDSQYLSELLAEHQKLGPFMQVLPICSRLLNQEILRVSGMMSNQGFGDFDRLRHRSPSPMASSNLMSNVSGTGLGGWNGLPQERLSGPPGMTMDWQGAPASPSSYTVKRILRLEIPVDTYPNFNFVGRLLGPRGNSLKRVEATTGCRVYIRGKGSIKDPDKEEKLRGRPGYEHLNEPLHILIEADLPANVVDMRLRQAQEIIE

[7] = molecular target: T6, B0280.17 (Caenorhabditis elegans) (UniProt Q2V4X2); conditions: 20 nM protein, 1.5 uM RNA pool; 20 mM HEPES pH 7.8, 70 mM KCl, 10 mM NaCl, 10% glycerol, 2 mM DTT, 0.1 ug/uL BSA; 30 min, 4 C
T6 sequence: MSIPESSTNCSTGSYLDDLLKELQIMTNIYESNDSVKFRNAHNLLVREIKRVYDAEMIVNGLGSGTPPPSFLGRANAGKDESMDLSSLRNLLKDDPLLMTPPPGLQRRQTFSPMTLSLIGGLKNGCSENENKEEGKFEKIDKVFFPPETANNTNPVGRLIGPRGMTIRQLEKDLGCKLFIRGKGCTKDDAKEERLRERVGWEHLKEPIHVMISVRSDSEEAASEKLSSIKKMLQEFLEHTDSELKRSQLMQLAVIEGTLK

Chain of fmr1 (Xenopus tropicalis) (Q6GLC9 170-401): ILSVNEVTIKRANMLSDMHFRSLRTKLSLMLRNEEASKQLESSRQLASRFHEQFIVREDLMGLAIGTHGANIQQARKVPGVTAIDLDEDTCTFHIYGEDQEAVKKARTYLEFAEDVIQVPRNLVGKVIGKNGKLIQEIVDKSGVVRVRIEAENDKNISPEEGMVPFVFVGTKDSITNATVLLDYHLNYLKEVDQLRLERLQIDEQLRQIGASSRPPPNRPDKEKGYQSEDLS

Work on AAAAAA [RNAcompete motif RNCMPT00471] yielded a binding signal (z-score (mean of top ten 7-mers)) [1] of 12.5.

For AACANA [RNAcompete motif RNCMPT00468], the binding signal (z-score (mean of top ten 7-mers)) [2] was 8.36.

With AACCAAA [RNAcompete motif RNCMPT00460] the binding signal (z-score (mean of top ten 7-mers)) [3] was 8.43.

In the case of AAGACAA [RNAcompete motif RNCMPT00474], the binding signal (z-score (mean of top ten 7-mers)) [4] is reported as 6.01.

For ACACACAA [RNAcompete motif RNCMPT00027], the binding signal (z-score (mean of top ten 7-mers)) [5] is listed as 8.6.

For ACUAAC [RNAcompete motif RNCMPT00465], the binding signal (z-score (mean of top ten 7-mers)) [6] was 12.4.

Work on ACUAACA [RNAcompete motif RNCMPT00467] yielded a binding signal (z-score (mean of top ten 7-mers)) [7] of 10.4.
